{
  "source": "patent US5844099",
  "about": "“Cytokine antagonists” (Regeneron Pharmaceuticals, Inc., dated 1998)",
  "molecules": {"B1": {"name": "gp130-Fc homodimer (Fc fusion)", "chain (part 1 of 2)": "ELLDPCGYISPESPVVQLHSNFTAVCVLKEKCMDYFHVNANYIVWKTNHFTIPKEQYTIINRTASSVTFTDIASLNIQLTCNILTFGQLEQNVYGITIISGLPPEKPKNLSCIVNEGKKMRCEWDGGRETHLETNFTLKSEWATHKFADCKAKRDTPTSCTVDYSTVYFVNIEVWVEAENALGKVTSDHINFDPVYKVKPNPPHNLSVINSEELSSILKLTWTNPSIKSVIILKYNIQYRTKDASTWSQIPPEDTASTRSSFTVQDLKPFTEYVFRIRCMKEDGKGYWSDWSEEASGITYEDRPSKAPSFWYKIDPSHTQGYRTVQLVWKTLPPFEANGKILDYEVTLTRWKSHLQNYTVNATKLTVNLTNDRYLATLTVRNLVGKSDAAVLTIPACDFQATHPVMDLKAFPKDNMLWVEWTTPRESVKKYILEWCVLSDKAPCITDWQQEDGTVHRTYLRGNLAESKCYLITVTPVYADGPGSPESIKAYLKQAPPSKGPTVRTKKVGKNEAVLEWDQLPVDVQNGFIRNYTIFYRTIIGNETAVNVDSSHTEYTLSSLTSDTLYMVRMAAYTDEGGKDGPEFTFTTPKFAQGEIESG", "chain (part 2 of 2)": "HHHHHH"}, "B2": {"name": "125I-CNTF (ligand, UniProt P20294 1-200, looked up, species assumed)", "Ciliary neurotrophic factor": "MAFAEQTPLTLHRRDLCSRSIWLARKIRSDLTALMESYVKHQGLNKNINLDSVDGVPVASTDRWSEMTEAERLQENLQAYRTFQGMLTKLLEDQRVHFTPTEGDFHQAIHTLMLQVSAFAYQLEELMVLLEQKIPENEADGMPATVGDGGLFEKKLWGLKVLQELSQWTVRSIHDLRVISSHQMGISALESHYGAKDKQM", "modifications": "125I label"}},
  "key": {"recombinant human IL-6 [1]": {"target": "T1, recombinant human IL-6 (human, UniProt P05231)"}, "human 125I-IL-6 (human)": {"target": "human 125I-IL-6 (human) (UniProt P05231)", "test": "dissociation of 20 pM 125I-IL-6 from 500 pM mAb B-E8 after adding 20 nM cold IL-6; precipitation with Protein G-Sepharose"}, "[2]": {"target": "CNTFRα, gp130 and LIFRβ on EW-1 cells", "test": "two site fit of CNTF binding on EW-1 cells; high affinity site"}, "CNTFRα on EW-1 cells": {"target": "CNTFRα on EW-1 cells", "test": "two site fit of CNTF binding on EW-1 cells; low affinity site"}, "recombinant human IL-6 [3]": {"target": "T1, recombinant human IL-6", "test": "cell-based or functional assay"}, "[4]": {"target": "T2, CNTFRα:β1 (CNTFRα and gp130) on PC12D cells", "T2 sequence (Q08406 whole entry, looked up)": "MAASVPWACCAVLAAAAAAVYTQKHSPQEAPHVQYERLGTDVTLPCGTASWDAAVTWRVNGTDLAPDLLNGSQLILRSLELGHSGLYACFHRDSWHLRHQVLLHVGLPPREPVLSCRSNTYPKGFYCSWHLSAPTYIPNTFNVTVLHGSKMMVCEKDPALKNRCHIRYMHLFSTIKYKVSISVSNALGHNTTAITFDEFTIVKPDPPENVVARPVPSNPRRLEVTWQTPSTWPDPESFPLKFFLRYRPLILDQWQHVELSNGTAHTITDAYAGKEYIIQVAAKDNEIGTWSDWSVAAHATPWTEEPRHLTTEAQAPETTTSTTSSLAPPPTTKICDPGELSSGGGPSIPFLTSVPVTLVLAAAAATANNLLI", "T2 sequence (P40190 whole entry, looked up)": "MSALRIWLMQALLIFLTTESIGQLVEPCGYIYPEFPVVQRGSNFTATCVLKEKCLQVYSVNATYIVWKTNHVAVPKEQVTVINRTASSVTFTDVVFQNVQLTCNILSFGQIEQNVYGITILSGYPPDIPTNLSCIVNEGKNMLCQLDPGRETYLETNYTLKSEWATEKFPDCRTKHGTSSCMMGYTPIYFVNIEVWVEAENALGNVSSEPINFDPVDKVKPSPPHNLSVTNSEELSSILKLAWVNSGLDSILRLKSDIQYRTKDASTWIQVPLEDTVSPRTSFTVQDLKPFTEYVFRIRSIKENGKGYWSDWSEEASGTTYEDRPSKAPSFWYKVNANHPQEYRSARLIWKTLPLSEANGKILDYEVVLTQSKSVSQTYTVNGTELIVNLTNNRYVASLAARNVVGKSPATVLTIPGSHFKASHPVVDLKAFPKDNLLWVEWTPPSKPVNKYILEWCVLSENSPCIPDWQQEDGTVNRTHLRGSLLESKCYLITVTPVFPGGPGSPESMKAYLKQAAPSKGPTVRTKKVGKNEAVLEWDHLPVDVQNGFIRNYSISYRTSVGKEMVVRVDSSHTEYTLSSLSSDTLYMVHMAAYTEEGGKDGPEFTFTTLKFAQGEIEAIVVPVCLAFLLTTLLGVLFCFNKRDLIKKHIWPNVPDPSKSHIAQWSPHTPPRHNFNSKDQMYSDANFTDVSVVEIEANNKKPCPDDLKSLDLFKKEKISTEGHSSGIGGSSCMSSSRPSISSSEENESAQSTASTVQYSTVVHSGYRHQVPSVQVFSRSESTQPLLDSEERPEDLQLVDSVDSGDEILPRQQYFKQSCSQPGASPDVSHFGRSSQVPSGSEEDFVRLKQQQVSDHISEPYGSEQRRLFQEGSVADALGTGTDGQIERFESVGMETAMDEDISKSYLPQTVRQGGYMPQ", "test": "Scatchard analysis of 125I-CNTF saturation binding on PC12D cells; high affinity site"}, "CNTFRα on PC12D cells": {"target": "T3, CNTFRα on PC12D cells", "T3 sequence (Q08406 23-342, looked up)": "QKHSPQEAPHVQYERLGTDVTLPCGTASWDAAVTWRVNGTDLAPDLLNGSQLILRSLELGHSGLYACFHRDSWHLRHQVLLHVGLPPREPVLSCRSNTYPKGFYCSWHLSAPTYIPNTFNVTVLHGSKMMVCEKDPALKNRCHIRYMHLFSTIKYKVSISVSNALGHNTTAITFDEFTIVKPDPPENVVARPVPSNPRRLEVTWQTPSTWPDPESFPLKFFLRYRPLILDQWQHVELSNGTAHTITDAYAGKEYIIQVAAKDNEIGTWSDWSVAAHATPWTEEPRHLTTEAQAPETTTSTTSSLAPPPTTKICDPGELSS", "test": "Scatchard analysis of 125I-CNTF saturation binding on PC12D cells; low affinity site"}},
  "data": [
    {"molecule": "anti-IL-6 monoclonal neutralizing antibody B-E8", "values": [
      {"measurement": "IL-6-dependent proliferation of XG-1 cells (MTT assay) (fold molar excess over IL-6)", "setting": "recombinant human IL-6 [1]", "value": 10},
      {"measurement": "percent of the counts remaining associated after three days", "setting": "human 125I-IL-6 (human)", "value": "< 5", "unit": "%"}
    ]},
    {"molecule": "CNTF (ligand)", "values": [
      {"measurement": "Kd", "setting": "[2]", "value": 0.01, "unit": "nM"},
      {"measurement": "Kd", "setting": "CNTFRα on EW-1 cells", "value": 1, "unit": "nM"}
    ]},
    {"molecule": "B1", "values": [
      {"measurement": "IL-6-dependent proliferation of XG-1 cells", "setting": "recombinant human IL-6 [3]", "value": "1000 fold molar excess over IL-6"}
    ]},
    {"molecule": "B2", "values": [
      {"measurement": "Kd", "setting": "[4]", "value": 0.009, "unit": "nM"},
      {"measurement": "Kd", "setting": "CNTFRα on PC12D cells", "value": 3.4, "unit": "nM"}
    ]}
  ]
}
